Test results as given in patent US20240360203A1 (GENERATE BIOMEDICINES, published 2024).
Substitutions are numbered along the chain they refer to. Where two headings read alike, the source gives them in different places.

B1: AB-1 (antibody, V domains shown)
VH: EVQLVESGAEVKKPGESLKISCKGSGYTFTRYWIGWVRQMPGKGLEWMGIIYPGDSDVRYSPSFQGHVTISADKSISTAYLQWNSLKASDTAMYYCARLPQYCSKGVCYRWFDPWGQGTLVTVSS
VL: EIVLTQSPSSVSASVGDRVTITCRASQGISSWLAWYQQKPGKAPKLLIYAASSLQSGVPSRFSGSGSGTDFTLTISSLQPEDFATYYCQQGHSFPYTFGQGTNLEIK
B2: Reference Antibody (antibody, V domains shown)
VH: B1 VH with V58T, K105N, Y109Q
VL: B1 VL with H92N

Columns and labels:
Assay in all cases: cell-based or functional assay
[1] = biological target: T1, SARS-CoV-2 Delta Spike on pseudovirus (SARS-CoV-2, UniProt P0DTC2 14-1273)
[2] = biological target: T2, SARS-CoV-2 BA.4/5 Spike on pseudovirus (SARS-CoV-2, UniProt P0DTC2 14-1273)
[3] = biological target: T3, SARS-CoV-2 BA.2.12.1 Spike on pseudovirus (SARS-CoV-2, UniProt P0DTC2 14-1273)
[4] = biological target: T4, SARS-CoV-2 BA.2 Spike on pseudovirus (SARS-CoV-2, UniProt P0DTC2 14-1273)
[5] = biological target: T5, SARS-CoV-2 BA.1 Spike on pseudovirus (SARS-CoV-2, UniProt P0DTC2 14-1273)
[6] = biological target: T1, SARS-CoV-2 Delta Spike on pseudovirus; remark: listed apart in the source
[7] = biological target: T2, SARS-CoV-2 BA.4/5 Spike on pseudovirus; remark: listed apart in the source
[8] = biological target: T4, SARS-CoV-2 BA.2 Spike on pseudovirus; remark: listed apart in the source
[9] = biological target: T2, SARS-CoV-2 BA.4/5 Spike on pseudovirus; remark: listed apart in the source
[10] = biological target: T1, SARS-CoV-2 Delta Spike on pseudovirus; remark: listed apart in the source
[11] = biological target: T2, SARS-CoV-2 BA.4/5 Spike on pseudovirus; remark: listed apart in the source
[12] = biological target: T3, SARS-CoV-2 BA.2.12.1 Spike on …; remark: listed apart in the source
[13] = biological target: T4, SARS-CoV-2 BA.2 Spike on pseudovirus; remark: listed apart in the source
[14] = biological target: T5, SARS-CoV-2 BA.1 Spike on pseudovirus; remark: listed apart in the source
[15] = biological target: T3, SARS-CoV-2 BA.2.12.1 Spike on …; remark: listed apart in the source

Row | Binder | IC50, pseudovirus neutralization [1] | IC50, pseudovirus neutralization [2] | IC50, pseudovirus neutralization [3] | IC50, pseudovirus neutralization [4] | IC50, pseudovirus neutralization [5] | IC50, pseudovirus neutralization [6] | IC50, pseudovirus neutralization [7] | IC50, pseudovirus neutralization [8] | IC50, pseudovirus neutralization [9] | % neutralization at 4.5 µg/ml, pseudovirus [10] | % neutralization at 4.5 µg/ml, pseudovirus [11] | % neutralization at 4.5 µg/ml, pseudovirus [12] | % neutralization at 4.5 µg/ml, pseudovirus [13] | % neutralization at 4.5 µg/ml, pseudovirus [14] | IC50, pseudovirus neutralization [15]
1 | B1 | 0.0139 µg/mL | 0.0278 µg/mL | 0.0133 µg/mL | 0.0219 µg/mL | 0.0088 µg/mL | 0.034 µg/mL | 0.075 µg/mL | 0.031 µg/mL | 0.0101 µg/mL | 99.5% | 90.4% | 89.2% | 89.9% | 96.5% | –
2 | B2 | 0.0681 µg/mL | 0.0314 µg/mL | 0.0307 µg/mL | 0.0941 µg/mL | 0.0261 µg/mL | 0.256 µg/mL | 0.634 µg/mL | 1.25 µg/mL | – | 93.9% | 74.4% | – | 74.5% | 91.9% | 0.337 µg/mL
